# Measured values published in the nanobody polyreactivity screen of Harvey et al. (2022).
# Test: yeast display, Sf9 membrane polyspecificity reagent, FACS + sequencing; frameworks hold sequencing errors
# How it was run: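 After 36–48 hours of galactose induction, yeast (Saccharomyces cerevisiae BJ5465) displaying a synthetic nanobody library were stained at 4 °C for 1 hour with 10% biotinylated, detergent-solubilized Sf9 membrane reagent. Streptavidin microbeads enriched the stained cells before FACS sorting into low and high (top ~1%) gates on anti-HA and streptavidin fluorescence. Each clone's polyreactivity label reflects its gate of origin.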
row,Sequence,polyreactivity (PSR sort gate)
1,AVQLEESRGGLVQAGGSLRLSCAASGFIFTVNAMGWSRQAPGKERELVAAITQSGGNTSYADSVKGRFTFSRDNAKNTFYLQMNSLKPEDTAVYYCAADDVDVEHPASWDDYDSWGQGTQVTVSS,low polyreactivity
2,EEELVESGGGLVQAGGSLRLSCAASGRIFGPYAMGWYRQAPGKEREFVAAISGGGGNTYYADSVKGRFTISRDNAKNTVNLQMNSLKPEDTAVYYCAAQHVPRWWWYAPVKYDYWGQGTQVTVSS,low polyreactivity
3,EEELVESGVGLVQAGGSLRLSCAASGRTFARNAMGWYRQAPGKERELVAGINFSGGNTYYADSVKGRFTISRDNAKNTVYLQMNSLKPEDTAVYYCAARRYWEGDYWGQGTQVTVSS,low polyreactivity
4,EVQLVESGGGLVQAGGSLRISCAASGRIFNFYAMGWYRQAPGKEREFVASIRSNVGSTYYADSVKGRFTISRDNAKNTVYLQMNSLKPEDTAVYYCNARYYWYRGYDYWGQGTQVTVSS,high polyreactivity
5,EVQLVESGGGLVQAGGSLRLSCAASGRIFVHYAMGWYRQAPGKERELVAAITSGSSTNYADSVKGRFTISRDNAKNTVYLQMNSLKPEDTAVYYCAADYSVHRVRDRWFDYWGQGTQVTVSS,low polyreactivity
6,EVQLVESGGGLVQAGGSLRLSCAASGSTFNWNDMGWYRQAPGKEREFVASISTTGSTNYADSVKGRFTISRDNAKNTVYLQMNSLKPEDTAVYYCNAEYGWYYWYGYWFYEGDYWGQGTQVTVSS,high polyreactivity
7,EVQLVESGGGLVQAGGSLRLSFAASGFTFRYYAMGWYRQAPGKERELVASITGGGRTYYADSVKGRFTISRDNAKNTVYLQMNSLKPEDTAVYYCATLLAYRLGSGYDSWGQGTQVTVSS,high polyreactivity
8,EVQLVESGGGLVQPGGSLRLSCAASGYIYSRYRMGWYRQAPGKGREFVAAISGGSSTNYADSVKGRFTISRDNSKNTVYLQMNSLRAEDTAVYYCAAYKIDIDPRVYWGHGTQVTVSS,low polyreactivity
9,EVQLVESGGGLVQPGGSLRLSCAASGYIYSRYRMGWYRQAPGKGREFVAAISGGSSTNYADSVKGRFTISRDNSTNTVYLQMNSLRAEDTAVYYCAAYKIDSDPRVYWGQGTQVTVSS,low polyreactivity
10,EVQLVESGGGLVQPGGSLRLSCASSGYIYRRYRMGRYRQAPGKGREFVAAISGGSSTNYADSVKGRFTISRDNSKNTLYLQMKSLRAEDTAVYYCEGYKIDSDPRVYWGQGTQVTVSS,low polyreactivity
11,EVQLVESRGGLVQAGGSLRLSCAASGRIFRVYTMGWYRQAPGKERELVAAISRGGTTTYADSVKGRFTISCDNAKNTVYLQMNSLKPEDTAVYYCNARGWFRGEFDYWGQGTQVTVSS,high polyreactivity
12,EVQLVESVGGLVHAGGSLGLSFAASGSIFDRNAMGWYRQAPGKERELVAAISVSGGSTYYADSVKGRFTISRDNAKNTVYLQMNSLKPEDTAVYYCDKAGRYANLPYGYWGHGTQVTVSS,high polyreactivity
13,HAQLQESGGGLVQAGGSLRRSCAASGSIFRFSGMGWYRRAPGKERELVASIGFGSITYYADRVKGRFTMSRDNANNTVYLQKNSLKPEDTAVDYCAVQVQDESWLDYWGQGTQVTVSC,low polyreactivity
14,HCQLVESGGVLVQEGGSLRISCAASGYTFTPYAMGWYRQAPGKEREFVAGITWRTGRTYYADSVKGRFTISRDIAKNTVYLQMISLKPEDTAVYYCNKYHQRRYYWSYDYWGQGTQVTVSS,low polyreactivity
15,HDQLVETGGGLVQAGGSLRLSCAASGRTYSKYAMGRYRQPPGKERELVAAITSGGGTYYADSVKGRFTISRDNAKNTVYVQMNSLSPEDSAVYYCAVSVTTVSTHDYWGQGTQVTVSS,low polyreactivity
16,HEQQQDSGAGLVQAGGSLRLSCAASGNIFDSPRMGWYRQATGKEREFVATIGSGTITNYADSVKGRFTISRDNAKNTVYLQMNSLKPEDTAVYYCAAEFYLRRFKVTKRYWFDYWGQGTQVTVSS,low polyreactivity
17,HGQLVESGGGLVHAGGSLRLSCAASGSTFAIYALGWYREAPGKERELVAGITGRGTSTYYADSVKGRFTISRDNAKNTVYLQMNSLKPEDTAVYYCNKVRYAFRYDYWGQGTQVTVSS,high polyreactivity
18,HGQLVESGGGLVQAGGSLRLSCAASGITFTPKDMGWYREAPGKERELVAAISSSDGTTYYADSVTGRFTSSRDNAKNTVYLQMNSLKPEDTAVYYCAAEYYYSPAYDYYSGFKTLYYDWGQGTQVTGSS,high polyreactivity
19,HLQLVESGGGLVQAGGSLRLSCAPSGSTFKRNTKGWYRQAPGKEREMVASINRGGSTYYADSVKGRFTISSDNAKNTVYLQMNSLKPEDTAVYYCAKRVLNCYTGTQAPNKFGYWGQGTQVTVSS,low polyreactivity
20,HVLLVESAGGLVQAGGSLRLSCAASGLIFHRYAMGWYRQAPGKERELVAAISSSGGITYYADSVKGRFTISRDNAKNTVYLQMNSLKPEDTAFYYCAADTGKGTPFSAGLGRAGDYWGQVTQVTVSS,low polyreactivity
21,HVQLGESGGGLVQAGGSLRLSCAASGFIFQRYAMGWDRQAPGKERELVAAITTSGGRTYYADSVKGRFTMSRDNAKKTVYLQMNSLKPEDTAVYYCAAEGSHNSEYWGQGTQVTVSS,high polyreactivity
22,HVQLQESDGGLVQAGGSLRLSCAASGSISPQYYMCWYRQAPGKEREFVAISKGTTTYYADSVKGRLTISRVNAKNTVYLQMNSLKPEDTAVYCCAAGRWLQKVHAYWDQGTQVTVSS,low polyreactivity
23,HVQLQESGGCLVQAGGSLRLSCAARGSNSRLDSMGWNRQASGKVRELVAAIDNGSTTYYADSVKGRLTISRDNAKYSVYLQMNSLKAEDTAVYFCAAVRGGGGTHAYWGQGTQVTVSG,low polyreactivity
24,HVQLQESGGGLVQAGGSLRLSCAASGNISNSRNMGWYRQAPGKERELVAAIDRGAITYYADSVKGRFTISRDNAKNTVYLQIYSLKPEDTAVYYCAAEYHDRWDHRYWGQGTQVTVSS,high polyreactivity
25,HVQLQESGGGLVQAGGSLRLSCAASGNISYSRNMGWYRQAPGKERELVAAIDRGAITYYADSVKGRFTISRDNAKNTVYLQIYSLKPEDTAVYYCAAEDHDRWDHLYWGQGTQVTVSS,high polyreactivity
26,HVQLVEAGGGLVQAGGSLRVSCAASGFTIHYNAMGWYRQAPGKGWELVATISKSAGITSYADSVKGRFTISRDNATNTVYFPMNSLKPEDTAVYYCAADKSYRRVYYWGQGSQVTVSS,low polyreactivity
27,HVQLVESGGGFVQAGGSLRLSCASYGSIFSGYAMGSYRQAPAKERELVAAISNTGSTNYADSVKGRFTISRDNAKYNVYLQMNSLKPEDTAVYYCNASYSYGEMDYWGQGTQVTVSS,low polyreactivity
28,HVQLVESGGGLVQAAGSLRLSCAASGSTFYRYAMGWYRQAPVKERELVAAITRGGGRTYYADSVKGRFTISRDNAKNTVYLQMNSLKPEDTAVFYCNAASPYYDSWGQGTQVTVSS,high polyreactivity
29,HVQLVESGGGLVQAGARLRLSCAASGITFFYYAMGWYRQAPGKERELVAAINWSGRTYYADSVKGRFTISRDNAKNTVYLQMNSLKPEDTAVDYCAAVTYGPGVSGMDYWGQGTQVTVSS,low polyreactivity
30,HVQLVESGGGLVQAGGILRLSCAASGRIFPGYTMGWYRQGPGKERELVARISFSDGSTYYADSVNGRFTISRDNAKNTVYFQMNSRKPEDTAVYYCNAATYRNRHSNNGYWGQGTQVTVSS,low polyreactivity
